Paper PMC6759063 (Oncogene, 2008)

Molecular target: cyclin D1 (human (endogenous in HK18), UniProt P24385 1-295)
Test: co-IP

cyclin D1, sequence (P24385 whole entry): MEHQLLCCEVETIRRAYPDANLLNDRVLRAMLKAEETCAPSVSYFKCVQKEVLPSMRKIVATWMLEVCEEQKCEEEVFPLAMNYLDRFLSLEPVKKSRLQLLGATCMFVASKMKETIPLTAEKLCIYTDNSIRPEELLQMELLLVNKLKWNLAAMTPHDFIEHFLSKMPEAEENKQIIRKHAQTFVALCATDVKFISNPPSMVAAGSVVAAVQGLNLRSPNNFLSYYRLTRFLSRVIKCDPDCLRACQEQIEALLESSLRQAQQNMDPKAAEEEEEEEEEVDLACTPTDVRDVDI

B1: 14-3-3ζ (natural protein, human (endogenous in HK18), UniProt P63104 1-245, looked up)
chain: MDKNELVQKAKLAEQAERYDDMAACMKSVTEQGAELSNEERNLLSVAYKNVVGARRSSWRVVSSIEQKTEGAEKKQQMAREYREKIETELRDICNDVLSLLEKFLIPNASQAESKVFYLKMKGDYYRYLAEVAAGDDKKGIVDQSQQAYQEAFEISKKEMQPTHPIRLGLALNFSVFYYEILNSPEKACSLAKTAFDEAIAELDTLSEESYKDSTLIMQLLRDNLTLWTSDTQGDEAEAGEGGEN
fold decrease of the co-precipitated complex after LDIR (densitometry): ~50 times
